Experimental data as given in patent US20240343817A1 (STAIDSON BEIJING BIOPHARMACEUTICALS, published 2024).
Residue numbers refer to the chain shown, from its start.

B1: D21 (antibody, human IgG4, V domains shown)
VH: QVQLVQSGAEVKKPGASVKVSCKASVYSFTGYTVNWVRQAPGQRLEWMGLINPRNGGTTYNQKFKGRVTLTIDKSASTAYMELSSLRSEDTAVYYCAWSYYSNPYAMDYWGQGTLVTVSS
VL: EIVMTQSPATLSVSPGERATLSCKASQNVHTRVAWYQQKPGQAPRLLIYLASDRRTGIPARFSGSGSGTEFTLTISSLQSEDFAVYYCLQHWNYPLTFGQGTKVEIK
notes: also called optimized anti-CD40 antibody D21
B2: D26 (antibody, human IgG4, V domains shown)
VH: B1 VH with R54Y, G57R, W98S, M107N
VL: B1 VL
notes: also called optimized anti-CD40 antibody D26
B3: D49 (antibody, human IgG4, V domains shown)
VH: B1 VH with R54Y, T59S, W98S, Y100P
VL: B1 VL with N93T
notes: also called optimized anti-CD40 antibody D49
B4: D5 (antibody, V domains shown)
VH: EVQLQQSGAELVSPGVSVKISCKGSGYTFTDHGMHWVKQSHAKSLEWIGVISTSYGVATYNQKFKGKATLSVDKSSSTAYLELARLTSEDSAIYYCARRDSKSPFDYWGQGTTLTVSS
VL: QIVLTQSPAIMSASPGEKITITCSASSSISSNYLHWYQQKPGFSPKLLIYRTSNLASGVPARFSGSGSGTSYSLTISSMEAEDAATYYCHQYHRSPLTFGAGTKLELK
notes: Full-length chimeric antibody: mouse variable domains with a human IgG1 or IgG4 heavy chain constant domain and a human kappa light chain constant domain; also called anti-CD40 antibody D5
B5: D1 (antibody, V domains shown)
VH: EVQLQQSGPDLVKPGASMKISCKASVYSFTGYTVNWVKQSHGKSLEWIGLINPYNGGTTYNQKFKGKATLTIDKSSTTAYMELLSLTSEDSAVYYCASSYYSNPYAMDYWGQGTSVTVSS
VL: DIVLNQSQKFMSTSVGDRVSITCKASQNVHTAVAWYQQKPGQSPKALIYLASDRRTGIPDRFTGSGSGTDFTLTIDNVQSEDLADYFCLQHWNYPLTFGAGTKLELK
notes: Full-length chimeric antibody: mouse variable domains with a human IgG1 or IgG4 heavy chain constant domain and a human kappa light chain constant domain; also called anti-CD40 antibody D1; mouse antibody D1
B6: D2 (antibody, V domains shown)
VH: EVHVKQSGAELVKPGASVKLSCTASGFNIKDAYMHWVKQRPEQGLEWIGRIDPANGNTKYDPKFQGKASITTDTSSNTAYLQLSSLTSEDTAVYYCTPNYYGSRYPFAYWGQGTTVTVSS
VL: DIVLTQSPAIMSASPGEKVSITCSASSSVSYMHWFQQKPGTSPKLWIYSTSNLASGVPARFSGSGSGTSYSLTISRMEADDAATYYCQQGSSYPLTFGAGTKLELK
notes: Full-length chimeric antibody: mouse variable domains with a human IgG1 or IgG4 heavy chain constant domain and a human kappa light chain constant domain; also called anti-CD40 antibody D2
B7: D7 (antibody, V domains shown)
VH: QIQLLQSGAELVKPGASVKLSCTASGFNIKDAYMHWVKQRPEQGLEWIGRIDPANGYTKSDPKFQGKATITSDTSSNTAYLQLSSLTSEDTAVYYCAPNYYGSRYPFAYWGQGTLVTVSS
VL: B6 VL with D1Q, S20T, L45I, S49F, D80E, S92T
notes: Full-length chimeric antibody: mouse variable domains with a human IgG1 or IgG4 heavy chain constant domain and a human kappa light chain constant domain; also called anti-CD40 antibody D7
B8: D6 (antibody, V domains shown)
VH: QVQLQQSGAELVRPGVSVKISCKGSGYTFTDHAIHWVKQSHARRLEWIGAISTNYGAATYNQKFKGKATMTVDKSSSTAYMELARLTSEDSAIYYCARRGSHGDWFAYWGQGTLVTVSA
VL: B6 VL with V3E, S20T, A59V, R76S, D80E, Q88H, G90Y, S91H, S92R, Y93S
notes: Full-length chimeric antibody: mouse variable domains with a human IgG1 or IgG4 heavy chain constant domain and a human kappa light chain constant domain; also called anti-CD40 antibody D6
B9: D3 (antibody, V domains shown)
VH: B6 VH with H3Q, V4L, K5Q, A32S, S69T, T72A, T97V, S103A, R104A
VL: B6 VL with T5I, S20T, L45V, S62G, D80E
notes: Full-length chimeric antibody: mouse variable domains with a human IgG1 or IgG4 heavy chain constant domain and a human kappa light chain constant domain; also called anti-CD40 antibody D3
B10: D4 (antibody, V domains shown)
VH: EVMLVESGAELVRPGASVKLSCTASGFKIKDSYIHWMIQRPEQGLEWIGRIDPTNGNTNFDPKFRGKATLTTDTSSNTAYLQLSSLTSEDTAVYYCVPNYYGSRYPFSYWGQGTTVTVSS
VL: B6 VL with D1Q, S20T, I21M, A25G, T41N, L45I, S49F, D80G, S92T
B11: D46 (antibody, human IgG4, V domains shown)
VH: B1 VH with R54Y, N55S, W98S, S102V
VL: B1 VL
B12: D50 (antibody, human IgG4, V domains shown)
VH: B1 VH with R54Y, T59A, W98S, N103D, M107N
VL: B1 VL
B13: D48 (antibody, human IgG4, V domains shown)
VH: B1 VH with R54S, W98S, M107N
VL: B1 VL with R32H
B14: D51 (antibody, human IgG4, V domains shown)
VH: B1 VH with R54E, W98S, M107N
VL: B1 VL

The binders below were run against T1, Rhesus monkey CD40 extracellular domain (recombinant) (Rhesus monkey, UniProt F6SNI1 21-193) (assay: ELISA, plate coated with recombinant rhesus monkey CD40 extracellular domain, antibody (human IgG4 format) in serial dilution, anti-human IgG-HRP, OD450).
T1 construct: extracellular domain; also called RheCD40
Description: (§1) ELISA Binding Assay: The selected monoclonal full-length antibodies D1, D2, D3, D5, D6, or D7 were subjected to binding assays with CD40 extracellular domain of different species, respectively. The assay was designed to identify full-length antibodies that cross-reacted with CD40 of different species. Briefly, the human or Rhesus monkey CD40 prepared in example 1 was dissolved in PBS and coated on […] with 0.1 μg/well followed by incubation at 4° C. overnight. The 96-well plates were washed with TBST before adding antibodies, blocked with 5% milk for 1-2 h at 37° C., and washed again with TBST. Firstly, each antibody sample was diluted to 10 μg/mL, and then serially diluted at a 1:3 ratio. 100 μL of serially diluted antibodies were added to each well and incubated for 1 h at 37° C. After washing with TBST for 6 times, 100 μL of the secondary antibody (goat anti-human IgG-HRP (Sigma. A8667)) was added to each well and incubated for 1 h at 37° C. After washing with TBST for 3 times, TMB was added with 100 μL/well and incubated for 10-20 minutes at 37° C. 2M H₂SO₄ was used to stop the reaction and plates were read for the absorbance at 450 nm. The ELISA results were then analyzed and the binding curves were generated by PRISM.
(§2) The biding affinity of the optimized full length CD40 antibodies with human or rhesus monkey CD40 was evaluated by Elisa according to the corresponding protocol as described in Example 2, and ASKP1240 was used as control.
With B1 the “EC50 (read off the curve)” value was roughly 0.1 µg/mL. In the case of B2, the “EC50 (read off the curve)” value is reported as roughly 0.1 µg/mL. B3 was tested, and the “EC50 (read off the curve)” value was roughly 0.1 µg/mL.

These binders were tested against T1, Rhesus monkey CD40 extracellular domain … (assay: ELISA; CD40 extracellular domain coated 0.1 µg/well, antibody titrated from 10 µg/mL 1:3, anti-human IgG-HRP).
Description: as §1
B4 gave an EC50 of 0.627 µg/mL. B5 gave an EC50 of 0.227 µg/mL. In the case of B6, the EC50 is reported as 0.473 µg/mL. B7 gave an EC50 of 0.133 µg/mL. Binder B8 has an EC50 of 0.243 µg/mL. B9 gave an EC50 of 0.0743 µg/mL.

These binders were tested against T2, human CD40 extracellular domain (recombinant) (human, UniProt P25942 21-193) in the same assay as above.
T2 construct: Extracellular domain expressed in 293F cells; also called hCD40; CD40-His; not shown: tag (His, Avi-His, mouse Fc or human Fc)
T2 sequence (P25942 21-193): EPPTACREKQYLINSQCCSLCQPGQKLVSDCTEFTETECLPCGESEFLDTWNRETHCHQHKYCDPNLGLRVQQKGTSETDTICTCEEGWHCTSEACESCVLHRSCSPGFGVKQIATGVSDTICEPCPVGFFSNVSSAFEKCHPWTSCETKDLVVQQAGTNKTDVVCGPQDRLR
Description: as §1
B4 gave an EC50 of 0.274 µg/mL. Binder B5 has an EC50 of 0.236 µg/mL. B6 gave an EC50 of 0.193 µg/mL. For B7, the EC50 was 0.261 µg/mL. Work on B8 yielded an EC50 of 0.176 µg/mL. Work on B9 yielded an EC50 of 0.224 µg/mL.

These binders were tested against T3, human CD40 on cells (human, UniProt P25942 21-277) (assay: cell-based or functional assay).
T3 sequence (P25942 21-277 limits assumed): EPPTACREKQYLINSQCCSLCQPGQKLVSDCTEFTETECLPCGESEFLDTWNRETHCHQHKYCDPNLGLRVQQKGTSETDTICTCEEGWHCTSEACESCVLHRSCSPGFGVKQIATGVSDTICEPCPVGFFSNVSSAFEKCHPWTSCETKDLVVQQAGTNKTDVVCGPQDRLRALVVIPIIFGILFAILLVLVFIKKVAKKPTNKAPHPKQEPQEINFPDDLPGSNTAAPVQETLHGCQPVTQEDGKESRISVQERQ
For B4, the “IC50, HEK-Blue CD40L NF-κB activation assay (SEAP), Fc-3*G4S-CD40L stimulus” value (from here on “IC50 … Fc-3*G4S-CD40L stimulus”) was 0.0142 µg/mL. For B5, the “IC50 … Fc-3*G4S-CD40L stimulus” value was 0.0215 µg/mL. With B6 the “IC50 … Fc-3*G4S-CD40L stimulus” value was 0.0171 µg/mL. B10 was tested, and the “IC50 … Fc-3*G4S-CD40L stimulus” value was 0.0167 µg/mL. In the case of B7, the “IC50 … Fc-3*G4S-CD40L stimulus” value is reported as 0.017 µg/mL. In the case of B8, the “IC50 … Fc-3*G4S-CD40L stimulus” value is reported as 0.00712 µg/mL. B9 was tested, and the “IC50 … Fc-3*G4S-CD40L stimulus” value was 0.0224 µg/mL.

These binders were tested against T2, human CD40 extracellular domain … (assay: SPR, Biacore 8K; antibody on CM5 chip, hCD40 at various concentrations).
Description: The binding affinity of the optimized anti-CD40 antibodies with human […] was characterized using Biacore 8K (GE). Anti-CD4 (antibodies were stabilized on sensor chip CM5 The affinities for hCD40 at various concentrations were measured. Using the SPR technology, the association and dissociation rates were measured, and binding affinity was determined.
B1 showed a Kd of 2.54 nM, a koff of 0.000606 s⁻¹ and a kon of 238000 M⁻¹ s⁻¹. Work on B2 yielded a Kd of 2.74 nM, a koff of 0.000596 s⁻¹ and a kon of 218000 M⁻¹ s⁻¹. B3 showed a Kd of 1.5 nM, a koff of 0.000295 s⁻¹ and a kon of 196000 M⁻¹ s⁻¹.

Target: T3, human CD40 on cells
Assay: cell-based or functional assay
Remark: another data set of the same source
For B1, the “IC50, HEK-Blue CD40L NF-κB activation assay (SEAP), antibody as human IgG4” value (“IC50 … as human IgG4” for short) was 0.0102 µg/mL. With B11 the “IC50 … as human IgG4” value was 0.0112 µg/mL. With B12 the “IC50 … as human IgG4” value was 0.0142 µg/mL. In the case of B13, the “IC50 … as human IgG4” value is reported as 0.0307 µg/mL. B14 was tested, and the “IC50 … as human IgG4” value was 0.0184 µg/mL. B2 was tested, and the “IC50 … as human IgG4” value was 0.00908 µg/mL. For B3, the “IC50 … as human IgG4” value was 0.0112 µg/mL.

Each binder was assayed against T2, human CD40 extracellular domain … (assay: ELISA, plate coated with recombinant human CD40 extracellular domain, antibody (human IgG4 format) in serial dilution, anti-human IgG-HRP, OD450).
Description: as §1, §2
In the case of B1, the “EC50 (read off the curve)” value is reported as roughly 0.2 µg/mL. B2 was tested, and the “EC50 (read off the curve)” value was roughly 0.2 µg/mL. In the case of B3, the “EC50 (read off the curve)” value is reported as roughly 0.2 µg/mL.
